Experimental findings from patent US20210261937 are described below.

For data set [1], the target named is scSUMO-MBP fusion protein with the bdSUMO^Mut11 exchanges.
Data set [2] deals with hsSUMO2-MBP fusion protein.
The target of data set [3] is bdSUMO Mut15-MBP fusion protein.
The target of data set [4] is bdSUMO D67K-MBP fusion protein.
Data set [5] addresses bdSUMO Mut10-MBP fusion protein.
The target of data set [6] is bdSUMO Mut12-MBP fusion protein.
Data set [7] addresses hsSUMO2-MBP fusion protein with the bdSUMO^Mut11 exchanges.
For data set [8], the target named is bdSUMO Mut13-MBP fusion protein.
The target of data set [9] is bdSUMO Mut14-MBP fusion protein.
The target of data set [10] is bdSUMO Mut8-MBP fusion protein.
The target in data set [11] is bdSUMO Mut11-MBP fusion protein.
For data set [12], the target named is scSUMO-MBP fusion protein with the bdSUMO^Mut1 exchanges.
The target in data set [13] is scSUMO-MBP fusion protein.
Data set [14] deals with bdSUMO^Mut1-MBP fusion protein.
Data set [15] deals with hsSUMO2-MBP fusion protein with the bdSUMO^Mut1 exchanges.
In data set [16] the target is bdSUMO-MBP fusion protein.

B1: bdSENP1 from B. distachyon (protein)
chain: PFVPLTDEDEDNVRHALGGRKRSETLSVHEASNIVITREILQCLNDKEWLNDEVINLYLELLKERELREPNKFLKCHFFNTFFYKKLINGGYDYKSVRRWTTKRKLGYNLIDCDKIFVPIHKDVHWCLAVINIKEKKFQYLDSLGYMDMKALRILAKYLVDEVKDKSGKQIDVHAWKQEGVQNLPLQENGWDCGMFMLKYIDFYSRDMELVFGQKHMSYFRRRTAKEILDLKAG
Regarding B1, the “cleavage of SUMO-MBP fusion, 1 h at 25 °C (FIG. 14)” value in [1] was “allowed cleavage resistance against Ulp1, SUMOstar protease, hsSENP2 and bdSENP1”; in data set [7], “allowed cleavage resistance against Ulp1, SUMOstar protease, hsSENP2 and bdSENP1”; in data set [12] it was “allowed cleavage resistance against Ulp1, SUMOstar protease, hsSENP2 and bdSENP1”; in [15] it was “allowed cleavage resistance against Ulp1, SUMOstar protease, hsSENP2 and bdSENP1”. In addition, the cleavage of the SUMO fusion protein in [2] is less than 50 % cleavage; in data set [3], less than 25 % cleavage; in data set [4], less than 25 % cleavage; in data set [5] it was less than 25 % cleavage; in [6], less than 25 % cleavage; in data set [8] it was less than 50 % cleavage. The cleavage of the SUMO fusion protein in [9] is less than 25 % cleavage; in data set [10] it was less than 25 % cleavage; in [11], less than 25 % cleavage; in data set [13] it was less than 50 % cleavage; in data set [14] it was less than 25 % cleavage; in data set [16], 100 % cleavage. Also, the “protease concentration required to efficiently cleave 100 µM cognate substrate, 1 h at 0 °C” value in [16] was “Around 15-50 nM of these two proteases were required to efficiently cleave the cognate substrate”.

B2: hsSENP2 (protein)
chain: EFPEITEEMEKEIKNVFRNGNQDEVLSEAFRLTITRKDIQTLNHLNWLNDEIINFYMNMLMERSKEKGLPSVHAFNTFFFTKLKTAGYQAVKRWTKKVDVFSVDILLVPIHLGVHWCLAVVDFRKKNITYYDSMGGINNEACRILLQYLKQESIDKKRKEFDTNGWQLFSKKSQEIPQQMNGSDCGMFACKYADCITKDRPINFTQQHMPYFRKRMVWEILHRKLL
For the protein B2, the “cleavage of SUMO-MBP fusion, 1 h at 25 °C (FIG. 14)” value is “allowed cleavage resistance against Ulp1, SUMOstar protease, hsSENP2 and bdSENP1” in data set [1]; “allowed cleavage resistance against Ulp1, SUMOstar protease, hsSENP2 and bdSENP1” in data set [7]; “allowed cleavage resistance against Ulp1, SUMOstar protease, hsSENP2 and bdSENP1” in [12]; “allowed cleavage resistance against Ulp1, SUMOstar protease, hsSENP2 and bdSENP1” in data set [15]. The cleavage of the SUMO fusion protein in [2] was 100 % cleavage; in data set [3] it was “resistant”; in [4], “resistant”; in data set [5], “resistant”; in data set [6] it was “resistant”; in data set [8] it was “resistant”. Further, the “cleavage of the SUMO fusion protein” value in data set [9] was “resistant”; in data set [10] it was “resistant”; in [11] it was “resistant”; in data set [13], 100 % cleavage; in data set [14], “resistant”; in data set [16], less than 50 % cleavage.
